# Data taken from article PMC9482650, “Quantitative fragmentomics allow affinity mapping of interactomes” (Nature Communications, 2022).
# T1: APBA2_1, Q99767
# T1 sequence (Q99767 563-664, limits assumed, looked up): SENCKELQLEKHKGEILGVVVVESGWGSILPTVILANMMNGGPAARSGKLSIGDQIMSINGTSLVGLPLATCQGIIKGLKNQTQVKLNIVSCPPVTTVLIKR
# T2: PDZD2_2, O15018
# T2 sequence (O15018 329-429, limits assumed, looked up): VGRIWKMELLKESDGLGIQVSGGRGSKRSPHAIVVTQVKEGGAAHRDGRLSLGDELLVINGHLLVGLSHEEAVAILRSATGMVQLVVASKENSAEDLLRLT
# T3: MPDZ_10, O75970
# T3 sequence (O75970 1624-1722, limits assumed, looked up): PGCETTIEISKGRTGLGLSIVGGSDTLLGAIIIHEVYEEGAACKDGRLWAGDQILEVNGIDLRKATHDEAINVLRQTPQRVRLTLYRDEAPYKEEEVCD
# T4: DFNB31_2, Q9P202
# T4 sequence (Q9P202 274-371, limits assumed, looked up): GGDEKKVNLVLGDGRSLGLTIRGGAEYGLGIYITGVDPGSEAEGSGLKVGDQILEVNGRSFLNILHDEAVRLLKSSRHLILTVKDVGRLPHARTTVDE
# T5: LNX2_3, Q8N448
# T5 sequence (Q8N448 463-564, limits assumed, looked up): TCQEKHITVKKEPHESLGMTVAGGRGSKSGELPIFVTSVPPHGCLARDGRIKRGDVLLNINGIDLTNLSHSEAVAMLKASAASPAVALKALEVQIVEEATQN
# T6: DVL3, Q92997
# T6 sequence (Q92997 244-331, limits assumed, looked up): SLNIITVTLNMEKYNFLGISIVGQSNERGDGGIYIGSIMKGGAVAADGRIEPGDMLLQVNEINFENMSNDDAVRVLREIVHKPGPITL
# T7: RAPGEF6, Q8TEU7
# T7 sequence (Q8TEU7 525-625, limits assumed, looked up): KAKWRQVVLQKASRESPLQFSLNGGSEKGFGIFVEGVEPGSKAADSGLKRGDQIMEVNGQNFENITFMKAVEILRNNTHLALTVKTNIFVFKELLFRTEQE
# T8: MPP6, Q9NZW5
# T8 sequence (Q9NZW5 125-219, limits assumed, looked up): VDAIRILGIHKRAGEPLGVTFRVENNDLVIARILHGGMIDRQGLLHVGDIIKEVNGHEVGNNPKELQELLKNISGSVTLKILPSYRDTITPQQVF
# T9: ARHGEF11, O15085
# T9 sequence (O15085 42-136, limits assumed, looked up): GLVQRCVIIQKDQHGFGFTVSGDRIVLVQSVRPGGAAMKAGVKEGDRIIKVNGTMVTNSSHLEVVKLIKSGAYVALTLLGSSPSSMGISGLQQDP
# T10: APBA2_2, Q99767
# T10 sequence (Q99767 654-744, limits assumed, looked up): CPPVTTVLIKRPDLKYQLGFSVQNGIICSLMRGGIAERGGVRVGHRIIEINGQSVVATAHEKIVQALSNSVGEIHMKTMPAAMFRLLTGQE
# T11: SNTB1, Q13884
# T11 sequence (Q13884 107-205, limits assumed, looked up): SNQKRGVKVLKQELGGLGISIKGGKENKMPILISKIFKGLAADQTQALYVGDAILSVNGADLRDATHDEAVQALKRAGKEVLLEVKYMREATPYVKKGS
# Assays:
# Test in all cases: holdup assay
# Parameters in all cases: key: below the threshold = too weak to quantify, mostly under pKd 3.1 to 4
# Conditions in all cases: plain residues with an end cap or a label only (N-terminal biotin on a linker: ttds)
# [1] = molecular target: T1, APBA2_1, Q99767
# [2] = molecular target: SCRIB_3, Q14160
# Chain of SCRIB_3, Q14160 (Q14160 999-1103): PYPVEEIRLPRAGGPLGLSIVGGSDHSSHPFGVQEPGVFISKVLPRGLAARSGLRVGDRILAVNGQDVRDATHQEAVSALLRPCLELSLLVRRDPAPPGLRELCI
# [3] = molecular target: LIMK2, P53671
# Chain of LIMK2, P53671 (P53671 143-248): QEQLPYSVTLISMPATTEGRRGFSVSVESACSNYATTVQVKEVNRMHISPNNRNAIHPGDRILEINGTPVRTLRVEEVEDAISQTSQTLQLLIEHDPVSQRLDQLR
# [4] = molecular target: T2, PDZD2_2, O15018
# [5] = molecular target: T3, MPDZ_10, O75970
# [6] = molecular target: T4, DFNB31_2, Q9P202
# [7] = molecular target: IL16_4, Q14005
# Chain of IL16_4, Q14005 (Q14005 1229-1329): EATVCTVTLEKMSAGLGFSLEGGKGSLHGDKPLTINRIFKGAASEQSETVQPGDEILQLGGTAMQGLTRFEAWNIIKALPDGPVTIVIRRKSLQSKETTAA
# [8] = molecular target: HTRA1, Q92743
# Chain of HTRA1, Q92743 (Q92743 360-477): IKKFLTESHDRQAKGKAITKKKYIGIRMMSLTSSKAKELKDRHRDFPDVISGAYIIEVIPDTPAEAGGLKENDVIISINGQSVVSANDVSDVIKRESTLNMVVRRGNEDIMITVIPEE
# [9] = molecular target: T5, LNX2_3, Q8N448
# [10] = molecular target: DLG1_1, Q12959
# [11] = molecular target: GRASP, Q7Z6J2
# Chain of GRASP, Q7Z6J2 (Q7Z6J2 96-193): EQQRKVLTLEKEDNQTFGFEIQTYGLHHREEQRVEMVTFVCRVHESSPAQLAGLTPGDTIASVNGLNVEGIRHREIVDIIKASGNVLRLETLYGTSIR
# [12] = molecular target: GRIP2_3, Q9C0E4
# Chain of GRIP2_3, Q9C0E4 (Q9C0E4 238-339): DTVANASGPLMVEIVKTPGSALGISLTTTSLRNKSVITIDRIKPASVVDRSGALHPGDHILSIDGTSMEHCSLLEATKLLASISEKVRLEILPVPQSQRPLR
# [13] = molecular target: T6, DVL3, Q92997
# [14] = molecular target: T7, RAPGEF6, Q8TEU7
# [15] = molecular target: IL16_3, Q14005
# Chain of IL16_3, Q14005 (Q14005 1107-1207): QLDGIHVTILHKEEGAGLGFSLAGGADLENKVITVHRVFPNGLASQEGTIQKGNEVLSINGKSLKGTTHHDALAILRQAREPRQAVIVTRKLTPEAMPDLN
# [16] = molecular target: T8, MPP6, Q9NZW5
# [17] = molecular target: SNX27, Q96L92
# [18] = molecular target: GRIP2_6, Q9C0E4
# Chain of GRIP2_6, Q9C0E4 (Q9C0E4 648-740): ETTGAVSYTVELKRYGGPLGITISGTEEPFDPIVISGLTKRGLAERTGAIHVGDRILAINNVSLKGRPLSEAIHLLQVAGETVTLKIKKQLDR
# [19] = molecular target: DLG5_1, Q8TDM6
# Chain of DLG5_1, Q8TDM6 (Q8TDM6 617-713): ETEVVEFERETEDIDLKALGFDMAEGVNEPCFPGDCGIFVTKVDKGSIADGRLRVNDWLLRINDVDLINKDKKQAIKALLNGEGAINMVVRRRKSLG
# [20] = molecular target: T9, ARHGEF11, O15085
# [21] = molecular target: TJP1_2, Q07157
# Chain of TJP1_2, Q07157 (Q07157 181-274): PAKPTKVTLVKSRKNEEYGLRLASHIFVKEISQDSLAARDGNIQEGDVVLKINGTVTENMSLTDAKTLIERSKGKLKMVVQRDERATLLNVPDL
# [22] = molecular target: NHERF4_1, Q86UT5-2
# Chain of NHERF4_1, Q86UT5-2 (Q86UT5 other isoform, or with tags, fused parts or gaps): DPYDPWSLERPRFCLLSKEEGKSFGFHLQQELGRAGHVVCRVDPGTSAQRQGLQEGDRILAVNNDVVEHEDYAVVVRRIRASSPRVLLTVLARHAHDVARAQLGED
# [23] = molecular target: T10, APBA2_2, Q99767
# [24] = molecular target: SCRIB_2, Q14160
# Chain of SCRIB_2, Q14160 (Q14160 857-960): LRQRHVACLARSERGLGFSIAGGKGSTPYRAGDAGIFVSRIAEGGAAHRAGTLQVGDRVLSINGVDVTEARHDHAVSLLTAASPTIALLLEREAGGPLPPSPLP
# [25] = molecular target: T11, SNTB1, Q13884
# [26] = molecular target: TJP2_1, Q9UDY2
# Chain of TJP2_1, Q9UDY2 (Q9UDY2 24-128): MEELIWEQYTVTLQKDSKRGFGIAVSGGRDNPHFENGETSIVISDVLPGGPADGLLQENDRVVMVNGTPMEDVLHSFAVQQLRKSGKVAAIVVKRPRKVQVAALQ
Binder,pKd [1],pKd [2],pKd [3],pKd [4],pKd [5],pKd [6],pKd [7],pKd [8],pKd [9],pKd [10],pKd [11],pKd [12],pKd [13],pKd [14],pKd [15],pKd [16],pKd [17],pKd [18],pKd [19],pKd [20],further results
"PVRVCEETSL [OTULIN, Q96BN8]",below the threshold,5.64,below the threshold,3.54,below the threshold,3.58,3.66,4.04,below the threshold,4.35,4.71,3.57,below the threshold,below the threshold,below the threshold,below the threshold,5.58,3.53,3.52,4.63,pKd [21]: below the threshold; pKd [22]: 4.02; pKd [23]: 3.51; pKd [24]: 4.7; pKd [25]: 4.61; pKd [26]: below the threshold
"SGSRPSATVV [HPV73-E6, Q82005]",below the threshold,below the threshold,below the threshold,4.11,3.74,below the threshold,below the threshold,3.9,below the threshold,3.89,3.8,below the threshold,3.5,3.57,below the threshold,3.57,below the threshold,below the threshold,below the threshold,3.98,pKd [21]: below the threshold; pKd [22]: below the threshold; pKd [23]: below the threshold; pKd [24]: 3.56; pKd [25]: below the threshold; pKd [26]: 3.77
"VDFPPKESSL [ACVR2A, P27037]",below the threshold,4.88,below the threshold,3.63,below the threshold,3.46,below the threshold,below the threshold,below the threshold,3.71,3.47,below the threshold,below the threshold,below the threshold,below the threshold,below the threshold,4.38,below the threshold,below the threshold,4.17,pKd [21]: below the threshold; pKd [22]: 3.35; pKd [23]: below the threshold; pKd [24]: 3.48; pKd [25]: 4.41; pKd [26]: below the threshold
